These results are taken from patent publication US5629176A, “Human Kunitz-type protease inhibitor variants” (Novo Nordisk A/S, priority 1994, dated 1997).

Experiment [1] concerns the target T1, Porcine trypsin (Sus scrofa, UniProt P00761).
T1 construct: purchased Novo Nordisk A/S
The experiment in a line: Inhibition of serine proteinases: trypsin, peptidyl nitroanilide substrate. To be noted: 30 minutes incubation, substrate 0.6 mM, residual activity at 405 nm. The format is biochemical. Here is the method:
(§1) The variants were purified from the yeast culture medium as described in example 1. The concentration of KFN 1651 was determined from the absorbance at 214 nm using aprotinin as a standard. Porcine trypsin was obtained from Novo Nordisk A/S. Human plasmin was obtained from Kabi (Stockholm, Sweden). Human neutrophil cathepsin G and elastase were purified from extracts of PMNs according to the method described by Baugh and Travis, Biochemistry 15, 1976, 836-843.
(§2) Peptidyl nitroanilide substrates S2251 ans S2586 were obtained from Kabi (Stockholm, Sweden), and S7388 and M 4765 were obtained from Sigma Chemical Co. (St. Louis, Mo., USA).
(§3) The serine proteinases were incubated with various concentrations of KFN 1900 or 1901 for 30 minutes. Substrate was then added (0.6 mM) and residual proteinase activity was measured at 405 nm.

For experiment [2], the target named is T2, Human neutrophil cathepsin G (Homo sapiens, UniProt P08311).
T2 construct: Human neutrophil cathepsin G and elastase were purified from extracts of PMNs; from tissue; host or cells: human polymorphonuclear leukocytes (PMNs)
T2 sequence (P08311 21-255): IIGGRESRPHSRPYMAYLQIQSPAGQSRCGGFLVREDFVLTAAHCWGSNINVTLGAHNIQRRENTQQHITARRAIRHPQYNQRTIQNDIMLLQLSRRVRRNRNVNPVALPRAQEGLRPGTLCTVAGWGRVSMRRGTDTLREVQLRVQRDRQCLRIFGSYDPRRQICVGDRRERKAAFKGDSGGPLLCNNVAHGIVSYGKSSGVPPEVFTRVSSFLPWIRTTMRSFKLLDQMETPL
As to the kind of experiment: Inhibition of serine proteinases: cathepsin G, peptidyl nitroanilide substrate. The format is biochemical. To be noted: 30 minutes incubation, substrate 0.6 mM, 405 nm. The method, then:
as §1, §2, §3

In experiment [3] the target is T3, Human plasmin (Homo sapiens, UniProt P00747).
T3 construct: purchased Kabi (Stockholm, Sweden)
The experiment in a line: Inhibition of serine proteinases: plasmin, peptidyl nitroanilide substrate. The format is biochemical. To be noted: at 1 μM; 30 minutes incubation, substrate 0.6 mM, 405 nm. Here is the method:
as §1, §2, §3

Experiment [4] addresses T4, Human neutrophil elastase (Homo sapiens, UniProt P08246).
T4 construct: Human neutrophil cathepsin G and elastase were purified from extracts of PMNs; from tissue; host or cells: human polymorphonuclear leukocytes (PMNs)
T4 sequence (P08246 30-267): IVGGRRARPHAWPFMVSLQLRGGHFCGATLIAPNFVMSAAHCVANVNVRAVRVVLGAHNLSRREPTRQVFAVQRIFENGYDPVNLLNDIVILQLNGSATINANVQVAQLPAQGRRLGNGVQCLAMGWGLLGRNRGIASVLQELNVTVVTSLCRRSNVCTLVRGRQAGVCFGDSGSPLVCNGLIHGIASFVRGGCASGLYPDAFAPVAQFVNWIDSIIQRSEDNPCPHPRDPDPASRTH
As to the kind of experiment: Inhibition of serine proteinases: neutrophil elastase, peptidyl nitroanilide substrate. The format is biochemical. To be noted: 30 minutes incubation, substrate 0.6 mM, 405 nm. Here is the method: as §1, §2, §3

In experiment [5] the target is Porcine trypsin (porcine) (UniProt P00761). As to the kind of experiment: inhibition of the proteinase, 30 minutes preincubation, residual activity on a peptidyl nitroanilide substrate at 405 nm.
In experiment [6] the test system is collagenase. The following applies: cited from earlier work.

T3 sequence (P00747 581-810 limits assumed): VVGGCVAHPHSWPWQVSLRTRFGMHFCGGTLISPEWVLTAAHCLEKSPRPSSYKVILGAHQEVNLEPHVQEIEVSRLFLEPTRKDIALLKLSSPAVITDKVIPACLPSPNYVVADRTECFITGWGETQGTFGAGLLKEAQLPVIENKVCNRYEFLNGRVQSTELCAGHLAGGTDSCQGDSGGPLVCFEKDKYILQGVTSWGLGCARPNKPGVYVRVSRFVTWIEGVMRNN
T3 sequence (P00747 97-580 partner limits assumed): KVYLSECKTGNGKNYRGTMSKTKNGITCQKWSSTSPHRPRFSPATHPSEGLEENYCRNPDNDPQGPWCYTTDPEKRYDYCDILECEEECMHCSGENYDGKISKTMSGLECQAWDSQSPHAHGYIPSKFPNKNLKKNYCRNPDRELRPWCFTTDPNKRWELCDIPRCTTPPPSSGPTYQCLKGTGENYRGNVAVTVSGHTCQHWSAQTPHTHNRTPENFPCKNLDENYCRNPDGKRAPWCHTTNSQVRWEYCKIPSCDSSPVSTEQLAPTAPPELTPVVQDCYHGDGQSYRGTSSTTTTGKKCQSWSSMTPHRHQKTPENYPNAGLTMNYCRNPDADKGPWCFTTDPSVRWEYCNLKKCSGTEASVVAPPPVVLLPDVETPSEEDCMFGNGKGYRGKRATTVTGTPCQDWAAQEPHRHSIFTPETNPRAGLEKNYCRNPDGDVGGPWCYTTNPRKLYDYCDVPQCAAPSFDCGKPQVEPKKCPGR
T1 sequence (P00761 9-231): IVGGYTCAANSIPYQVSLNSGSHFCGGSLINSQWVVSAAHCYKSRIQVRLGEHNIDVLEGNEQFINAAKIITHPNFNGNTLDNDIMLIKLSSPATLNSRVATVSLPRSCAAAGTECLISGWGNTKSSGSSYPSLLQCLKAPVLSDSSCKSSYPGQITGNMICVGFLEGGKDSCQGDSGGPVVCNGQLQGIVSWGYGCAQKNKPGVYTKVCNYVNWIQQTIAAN

With “KFN 1900: [R15K, D16A] analog of the human α3(VI) collagen Kunitz-type protease inhibitor domain, produced from yeast strain KFN-1900”, in experiment [1], the affinity corresponds to a Ki of 50 nM. Further, the “inhibition of cathepsin G” value in experiment [2] is on record as “did not inhibit”. The inhibition of plasmin entry in experiment [3] was “weak inhibitors”. Moreover, the “inhibition of neutrophil elastase” value in experiment [4] is reported as “did not inhibit”.

Take “KFN 1901: [D16A] analog of the human α3(VI) collagen Kunitz-type protease inhibitor domain, produced from yeast strain KFN-1901”: the affinity in experiment [1] corresponds to a Ki of 355 nM. Moreover, the “inhibition of cathepsin G” value in experiment [2] was “did not inhibit”. In experiment [3], the inhibition of plasmin result is given as “weak inhibitors”. For the same substance, the “inhibition of neutrophil elastase” value in experiment [4] was “did not inhibit”.

With “[D16A]-α3(VI) Kunitz-type domain analog (from UniProt P12111)”, the Ki in experiment [5] was determined as 355 nM.

“[R15K, D16A]-α3(VI) Kunitz-type domain analog (from UniProt P12111)” showed a Ki in experiment [5] of 50 nM.

Consider aprotinin(1-58, Val15), for which, in experiment [6], the “inhibitory effect on collagenase” value is “inhibitory effect”.
